The text below walks through data of patent US20200347130A1 (JIANGSU HENGRUI MEDICINE, published 2020).

By Kd is commonly meant the constant that tells how readily two partners part at equilibrium.

To fix the notation:
T1: CD96 extracellular region with His tag (CD96-His) (human, UniProt P40200 22-519)
T1 construct: also called CD96-ECD-His; Bio-CD96-His (biotin-labelled form)
T1 sequence: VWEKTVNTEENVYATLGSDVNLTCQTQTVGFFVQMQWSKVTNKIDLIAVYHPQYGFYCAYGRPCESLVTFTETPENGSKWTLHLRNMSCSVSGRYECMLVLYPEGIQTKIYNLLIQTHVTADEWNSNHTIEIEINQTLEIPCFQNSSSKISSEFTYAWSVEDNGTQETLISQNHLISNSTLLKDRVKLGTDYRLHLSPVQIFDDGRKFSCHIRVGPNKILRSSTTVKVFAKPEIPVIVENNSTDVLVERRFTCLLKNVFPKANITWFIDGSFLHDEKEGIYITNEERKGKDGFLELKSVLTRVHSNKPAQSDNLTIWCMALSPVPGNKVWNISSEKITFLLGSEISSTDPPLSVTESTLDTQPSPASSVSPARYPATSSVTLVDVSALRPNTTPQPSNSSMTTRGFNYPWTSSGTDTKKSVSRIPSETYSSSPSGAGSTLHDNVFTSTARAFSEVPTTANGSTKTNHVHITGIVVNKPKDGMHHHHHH

B1: h1722-007 (antibody, V domains shown)
VH: EVQLVQSGAEVKKPGSSVKVSCKASGGTFSDYWMHWVKQAPGQGLEWIGMLHPNSGTTSFNEKFKIRVTITIDKSTSTAYMELSSLRSEDTAVYYCASDYSGPFAYWGQGTLVTVSS
VL: DIQMTQSPSSLSASVGDRVTITCSASSSVNYIHWYQQKPGKAPKRWIYDTSKLASGVPSRFSGSGSGTDFTLTISSLQPEDFATYYCQQWRSNPLTFGQGTKLEIK
notes: Only variable regions are tied to this name
B2: h1718-007 (antibody, V domains shown)
VH: EVQLVQSGAEVKKPGASVKVSCKASGYTITDYNMNWVRQAPGQRLEWIGVINPSYGITDYNQNFKDRVTITVDTSASTAYMELSSLRSEDTAVYYCAIQLRLPGYFDVWGQGTTVTVSS
VL: DIQMTQSPSSLSASVGDRVTITCKASQDINNYLNWFQQKPGKAPKTLIYRANRLVDGVPSRFSGSGSGQDYTLTISSLQPEDFATYYCLKYDEFPYTFGGGTKVEIK
notes: as for B1
B3: h1718-018 (antibody, V domains shown)
VH: EVQLVQSGAEVKKPGASVKVSCKASGYTITDYNMNWVKQAPGQRLEWIGVINPSYGITDYNQNFKDKVTITVDTSASTAYMELSSLRSEDTAVYYCAIQLRLPGYFDVWGQGTTVTVSS
VL: DIQMTQSPSSLSASVGDRVTITCKASQDINQYLNWFQQKPGKAPKTLIYRANRLVDGVPSRFSGSGSGQDYTLTISSLQPEDFATYYCLKYDEFPYTFGGGTKVEIK
notes: as for B1
B4: h1718-019 (antibody, V domains shown)
VH: EVQLVQSGAEVKKPGASVKVSCKASGYTITDYNMNWVKQAPGQRLEWIGVINPSYGITDYNQNFKDKVTITVDTSASTAYMELSSLRSEDTAVYYCAIQLRLPGYFDVWGQGTTVTVSS
VL: DIQMTQSPSSLSASVGDRVTITCKASQDINTYLNWFQQKPGKAPKTLIYRANRLVDGVPSRFSGSGSGQDYTLTISSLQPEDFATYYCLKYDEFPYTFGGGTKVEIK
notes: as for B1
B5: h1718-020 (antibody, V domains shown)
VH: EVQLVQSGAEVKKPGASVKVSCKASGYTITDYNMNWVKQAPGQRLEWIGVINPSYGITDYNQNFKDKVTITVDTSASTAYMELSSLRSEDTAVYYCAIQLRLPGYFDVWGQGTTVTVSS
VL: DIQMTQSPSSLSASVGDRVTITCKASQDINLYLNWFQQKPGKAPKTLIYRANRLVDGVPSRFSGSGSGQDYTLTISSLQPEDFATYYCLKYDEFPYTFGGGTKVEIK
notes: as for B1
B6: h1718-008 (antibody, V domains shown)
VH: EVQLVQSGAEVKKPGASVKVSCKASGYTITDYNMNWVKQAPGQRLEWIGVINPSYGITDYNQNFKDKVTITVDTSASTAYMELSSLRSEDTAVYYCAIQLRLPGYFDVWGQGTTVTVSS
VL: DIQMTQSPSSLSASVGDRVTITCKASQDINNYLNWFQQKPGKAPKTLIYRANRLVDGVPSRFSGSGSGQDYTLTISSLQPEDFATYYCLKYDEFPYTFGGGTKVEIK
notes: as for B1
B7: h1718-013 (antibody, V domains shown)
VH: EVQLVQSGAEVKKPGASVKVSCKASGYTITDYNMNWVRQAPGQRLEWIGVINPSYGITDYNQNFKDRVTITVDTSASTAYMELSSLRSEDTAVYYCAIQLRLPGYFDVWGQGTTVTVSS
VL: DIQMTQSPSSLSASVGDRVTITCKASQDINTYLNWFQQKPGKAPKTLIYRANRLVDGVPSRFSGSGSGQDYTLTISSLQPEDFATYYCLKYDEFPYTFGGGTKVEIK
notes: as for B1
B8: h1718-014 (antibody, V domains shown)
VH: EVQLVQSGAEVKKPGASVKVSCKASGYTITDYNMNWVRQAPGQRLEWIGVINPSYGITDYNQNFKDRVTITVDTSASTAYMELSSLRSEDTAVYYCAIQLRLPGYFDVWGQGTTVTVSS
VL: DIQMTQSPSSLSASVGDRVTITCKASQDINLYLNWFQQKPGKAPKTLIYRANRLVDGVPSRFSGSGSGQDYTLTISSLQPEDFATYYCLKYDEFPYTFGGGTKVEIK
notes: as for B1
B9: h1721-007 (antibody, V domains shown)
VH: EVTLKESGPVLVKPTETLTLTCTVSGFSLSSYGVNWIRQPPGKALEWLGVIWGDGSTNYHSALISRLTISKDTSKSQVVLTLTNMDPVDTATYYCAKNYFYGSRYGYAMDSWGQGTTVTVSS
VL: DIQMTQSPSSLSASVGDRVTITCRASENIYSSLAWYQQKPGKAPKLLVYNAKTLIEGVPSRFSGSGSGTDYTLTISSLQPEDFATYYCQHHYGTPYTFGGGTKVEIK
notes: as for B1
B10: h1721-005 (antibody, V domains shown)
VH: EVTLKESGPVLVKPTETLTLTCTVSGFSLSSYGVNWIRQPPGKALEWLAVIWGDGSTNYHSALISRLTISKDTSKSQVVLTMTNMDPVDTATYYCARNYFYGSRYGYAMDSWGQGTTVTVSS
VL: DIQMTQSPSSLSASVGDRVTITCRASENIYSSLAWYQQKPGKAPKLLVYNAKTLIEGVPSRFSGSGSGTDYTLTISSLQPEDFATYYCQHHYGTPYTFGGGTKVEIK
notes: as for B1
B11: h1721-008 (antibody, V domains shown)
VH: EVTLKESGPVLVKPTETLTLTCTVSGFSLSSYGVNWVRQPPGKGLEWLGVIWGDGSTNYHSALISRLTISKDTSKSQVVLTLTNMDPVDTATYYCAKNYFYGSRYGYAMDSWGQGTTVTVSS
VL: DIQMTQSPSSLSASVGDRVTITCRASENIYSSLAWYQQKPGKAPKLLVYNAKTLIEGVPSRFSGSGSGTDYTLTISSLQPEDFATYYCQHHYGTPYTFGGGTKVEIK
notes: as for B1
B12: h1721-012 (antibody, V domains shown)
VH: EVTLKESGPVLVKPTETLTLTCTVSGFSLSSYGVNWVRQPPGKGLEWLGVIWGDGSTNYHSALISRLTISKDTSKSQVVLTLTNMDPVDTATYYCAKNYFYGSRYGYAMDSWGQGTTVTVSS
VL: DIQMTQSPSSLSASVGDRVTITCRASENIYSSLAWYQQKPGKSPKLLVYNAKTLIEGVPSRFSGSGSGTDYTLTISSLQPEDFATYYCQHHYGTPYTFGGGTKVEIK
notes: also called h1721-0012
B13: h1721-011 (antibody, V domains shown)
VH: EVTLKESGPVLVKPTETLTLTCTVSGFSLSSYGVNWIRQPPGKALEWLGVIWGDGSTNYHSALISRLTISKDTSKSQVVLTLTNMDPVDTATYYCAKNYFYGSRYGYAMDSWGQGTTVTVSS
VL: DIQMTQSPSSLSASVGDRVTITCRASENIYSSLAWYQQKPGKSPKLLVYNAKTLIEGVPSRFSGSGSGTDYTLTISSLQPEDFATYYCQHHYGTPYTFGGGTKVEIK
notes: as for B1
B14: h1721-010 (antibody, V domains shown)
VH: EVTLKESGPVLVKPTETLTLTCTVSGFSLSSYGVNWIRQPPGKALEWLGVIWGDGSTNYHSALISRLTISKDTSKSQVVLTMTNMDPVDTATYYCAKNYFYGSRYGYAMDSWGQGTTVTVSS
VL: DIQMTQSPSSLSASVGDRVTITCRASENIYSSLAWYQQKPGKSPKLLVYNAKTLIEGVPSRFSGSGSGTDYTLTISSLQPEDFATYYCQHHYGTPYTFGGGTKVEIK
notes: as for B1
B15: h1721-004 (antibody, V domains shown)
VH: EVTLKESGPVLVKPTETLTLTCTVSGFSLSSYGVNWVRQPPGKGLEWLGVIWGDGSTNYHSALISRLTISKDTSKSQVVLTLTNMDPVDTATYYCAKNYFYGSRYGYAMDSWGQGTTVTVSS
VL: DIQMTQSPSSLSASVGDRVTITCRASENIYSSLAWYQQKPGKAPKLLIYNAKTLIEGVPSRFSGSGSGTDFTLTISSLQPEDFATYYCQHHYGTPYTFGGGTKVEIK
notes: as for B1
B16: h1721-006 (antibody, V domains shown)
VH: EVTLKESGPVLVKPTETLTLTCTVSGFSLSSYGVNWIRQPPGKALEWLGVIWGDGSTNYHSALISRLTISKDTSKSQVVLTMTNMDPVDTATYYCAKNYFYGSRYGYAMDSWGQGTTVTVSS
VL: DIQMTQSPSSLSASVGDRVTITCRASENIYSSLAWYQQKPGKAPKLLVYNAKTLIEGVPSRFSGSGSGTDYTLTISSLQPEDFATYYCQHHYGTPYTFGGGTKVEIK
notes: as for B1
B17: h1721-002 (antibody, V domains shown)
VH: EVTLKESGPVLVKPTETLTLTCTVSGFSLSSYGVNWIRQPPGKALEWLGVIWGDGSTNYHSALISRLTISKDTSKSQVVLTMTNMDPVDTATYYCAKNYFYGSRYGYAMDSWGQGTTVTVSS
VL: DIQMTQSPSSLSASVGDRVTITCRASENIYSSLAWYQQKPGKAPKLLIYNAKTLIEGVPSRFSGSGSGTDFTLTISSLQPEDFATYYCQHHYGTPYTFGGGTKVEIK
notes: as for B1
B18: h1721-009 (antibody, V domains shown)
VH: EVTLKESGPVLVKPTETLTLTCTVSGFSLSSYGVNWIRQPPGKALEWLAVIWGDGSTNYHSALISRLTISKDTSKSQVVLTMTNMDPVDTATYYCARNYFYGSRYGYAMDSWGQGTTVTVSS
VL: DIQMTQSPSSLSASVGDRVTITCRASENIYSSLAWYQQKPGKSPKLLVYNAKTLIEGVPSRFSGSGSGTDYTLTISSLQPEDFATYYCQHHYGTPYTFGGGTKVEIK
notes: as for B1
B19: h1721-001 (antibody, V domains shown)
VH: EVTLKESGPVLVKPTETLTLTCTVSGFSLSSYGVNWIRQPPGKALEWLAVIWGDGSTNYHSALISRLTISKDTSKSQVVLTMTNMDPVDTATYYCARNYFYGSRYGYAMDSWGQGTTVTVSS
VL: DIQMTQSPSSLSASVGDRVTITCRASENIYSSLAWYQQKPGKAPKLLIYNAKTLIEGVPSRFSGSGSGTDFTLTISSLQPEDFATYYCQHHYGTPYTFGGGTKVEIK
notes: as for B1

The assay deals with T1, CD96 extracellular region with His tag …. Put plainly: SPR (Biacore), antibody captured, CD96-ECD-His as mobile phase. The text has this: Protein A biosensor chip was used to capture antibodies to be tested, then CD96 antigen was flowed on the surface of the chip, and real time reaction signal was detected by Biacore to obtain the binding and dissociation curve. After the dissociation of each experimental cycle was completed, the biosensor chip was washed and regenerated with a glycine-hydrochloric acid regeneration solution (pH 1.5).
B1 displayed a Kd of 1.31 nM. To B2 belongs 3.88 nM. To B3 belongs 3.82 nM. The molecule B4 returned a Kd of 3.7 nM. To B5 belongs 3.41 nM; to B6, 3.37 nM.

On to B7, for which the Kd stood at 4.08 nM.

For the molecule B8, the Kd amounted to 4.31 nM. Next, B9: 1.87 nM. To B10 belongs 2.25 nM; to B11, 2.22 nM. For B12, the Kd stood at 2.14 nM.

B13: binding was put at a Kd of 2.12 nM. In turn, B14 yielded a Kd of 2.04 nM.

The molecule B15 registered a dissociation constant (Kd) of 2 nM.

The molecule B16 returned a Kd of 2.29 nM. Molecule B17 had a Kd of 2.2 nM. The molecule B18 returned a Kd of 2.01 nM. Molecule B19 gave a Kd of 2.73 nM.
